Experimental data from patent US20160333082A1 (US Dept. of Health and Human Services, published 2016).
One block for each binder: values may come before it.

B1: anti-C3d mouse/human chimeric antibody C8D3 (antibody, V domains shown)
VH: QAYLQQSGAELVRPGASVKMSCKASGYTFTSYYMHWVKQTPRQGLEWIGAIYPGNGDTSYNQKFKGKATLTVDKSSSTAYMQLSSLTSEDSAVYFCAKGFDYWGQGTTVTVSS
VL: DVVMTQTPLSLPVSLGDQASISCRSSQSLVYSNGNTYLHWYLQKPGQSPKLLIYKVSNRFSGVPDRFSGSGSGTDFTLKISRVEAEDLGVYFCSQSTHVPYTFGGGTKLEIKR
notes: also called chimeric C8D3; chimeric C8D3 mAb

Key:
[1] = biological target: T1, human complement protein C3d (human, UniProt P01024 1002-1303); test: flow cytometry (MFI) on CLL cells taken 24 h after ofatumumab infusion (C3d-opsonised)
T1 construct: domain: C3d; The assay field of each row says which; also called C3d antigen; C3d protein

[2] = biological target: T1, human complement protein C3d; test: avidity; antibody titration on C3d-opsonised CLL patient cells, 'OFA 24 h' sample (FIG. 9); apparent KD (avidity) on C3d-opsonized CLL cells, OFA 24 h sample
[3] = biological target: T1, human complement protein C3d; test: surface plasmon resonance (Biacore 3000), C3d immobilised, Fab at 0.5, 2.5, 5, 25 and 50 nM
[4] = biological target: T1, human complement protein C3d; test: PEPperCHIP microarray of 15-aa C3d peptides
Excerpt: The epitopes on C3d were mapped using PEPperCHIP technology (PEPperPRINT GmbH, Heidelberg, Germany). In brief, 15 amino acid (aa) long peptides with 14 aa overlaps were synthesized based on the C3d aa sequence and immobilized in duplicate on microarray chips. […] The microarrays were read using the LI-COR Odyssey Imaging System and then analyzed using PepSlide® Analyzer software.

[5] = biological target: B1; test: competition: C8D3 binding to C3d antigen (MFI) with increasing amounts of peptide

Binder: B1
- EC50 (read off the curve) [1]: ~40 nM
- Kd [2]: 6.7 nM

B2: anti-C3d Fab of chimeric antibody C8D3 (Fab, V domains shown)
VH: QAYLQQSGAELVRPGASVKMSCKASGYTFTSYYMHWVKQTPRQGLEWIGAIYPGNGDTSYNQKFKGKATLTVDKSSSTAYMQLSSLTSEDSAVYFCAKGFDYWGQGTTVTVSS
VL: DVVMTQTPLSLPVSLGDQASISCRSSQSLVYSNGNTYLHWYLQKPGQSPKLLIYKVSNRFSGVPDRFSGSGSGTDFTLKISRVEAEDLGVYFCSQSTHVPYTFGGGTKLEIKR
- Kd [3]: 17 nM

Continued, values first:

- binding result [4]: binds
B3: murine anti-C3d hybridoma clone C6 (antibody, V domains shown)
VH: QAYLQQSGAELVRPGASVKMSCKASGYTFTSYYMHWVKQTPRQGLEWIGAIYPGNGDTSYNQKFKGKATLTVDKSSSTAYMQLSSLTSEDSAVYFCAKYGSGYWGQGTTVTVSS
VL: DVVMTQTPLSLPVSLGDQASISCRSSQSLVYSNGNTYLHWYLQKPGQSPKLLIYKVSNRFSGVPDRFSGSGSGTDFTLKISRVEAEDLGVYFCSQSTHVPYTFGGGTKLEIKR
notes: Murine IgG1, kappa

- binding result [5]: binds
B4: epitope 3 derived peptide (peptide)
peptide: QYQKDAPDHQELNLDVSLQLPSR
